From US20250340631A1 (HARBOUR BIOMED SHANGHAI, published 2025)
Like-named read-outs stand apart in the source and are kept apart here.

Assays:
[1] = target: CLDN18.2 of SNU620 cells (methionine to leucine at amino acid 149) (human, UniProt P56856-2 1-261); assay: cell-based or functional assay
[2] = target: human CLDN18.2 (human); assay: cell-based or functional assay
[3] = target: T1, human CLDN18.2 (human); assay: FACS on HEK293/hCLDN18.2 cells
T1 construct: the HEK293 line was made with a GenScript plasmid; also called hCLDN18.2

[4] = target: T1, human CLDN18.2; assay: FACS on NUGC4_D8 cells
[5] = target: T2, human CD3 on Jurkat cells (human, UniProt P07766 23-207); assay: FACS on Jurkat cells (CD3)
T2 construct: whole, on cells; on cells it stands in the whole CD3/TCR complex; also called CD3-expressing cells
T2 sequence (P07766 23-207): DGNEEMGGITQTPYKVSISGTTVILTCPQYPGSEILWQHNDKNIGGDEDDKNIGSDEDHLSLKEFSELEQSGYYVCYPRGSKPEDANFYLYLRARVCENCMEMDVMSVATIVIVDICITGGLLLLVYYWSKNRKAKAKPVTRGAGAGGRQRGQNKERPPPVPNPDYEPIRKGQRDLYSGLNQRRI

[6] = target: T2, human CD3 on Jurkat cells; assay: FACS on Jurkat cells (CD3); remark: listed apart in the source

CLDN18.2 of SNU620 cells (methionine to leucine at amino acid 149), sequence (P56856 other isoform, or with tags, fused parts or gaps limits assumed): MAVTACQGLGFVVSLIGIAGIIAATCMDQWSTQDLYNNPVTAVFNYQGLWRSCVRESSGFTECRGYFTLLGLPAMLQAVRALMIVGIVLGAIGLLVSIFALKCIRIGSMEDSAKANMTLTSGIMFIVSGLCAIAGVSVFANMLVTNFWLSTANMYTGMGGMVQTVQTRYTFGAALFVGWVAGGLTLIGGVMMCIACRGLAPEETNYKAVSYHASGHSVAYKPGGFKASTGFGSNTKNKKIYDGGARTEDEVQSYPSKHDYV

B1: PR005398 (bispecific antibody, human IgG1, lambda, L234A L235A)
chain: EVQLVESGGGLVQPGGSLRLSCAASGFTFSSYWMHWVRQVPGKGLVWVSRINFDSSRTIYADSVKGRFTISRDNAKNTLYLQMNSLRAEDTAVYYCARGEDHDILTGYPIRGQGTTVTVSSGGGGSGGGGSGGGGSEVQLVESGGGLVQPGGSLRLSCAASGFTFSSYWMHWVRQVPGKGLVWVSRINFDSSRTIYADSVKGRFTISRDNAKNTLYLQMNSLRAEDTAVYYCARGEDHDILTGYPIRGQGTTVTVSSASEPKSSDKTHTCPPCPAPEAAGGPSVFLFPPKPKDTLMISRTPEVTCVVVDVSHEDPEVKFNWYVDGVEVHNAKTKPREEQYNSTYRVVSVLTVLHQDWLNGKEYKCKVSNKALPAPIEKTISKAKGQPREPQVCTLPPSREEMTKNQVSLSCAVKGFYPSDIAVEWESNGQPENNYKTTPPVLDSDGSFFLVSKLTVDKSRWQQGNVFSCSVMHEALHNHYTQKSLSLSPGK
heavy: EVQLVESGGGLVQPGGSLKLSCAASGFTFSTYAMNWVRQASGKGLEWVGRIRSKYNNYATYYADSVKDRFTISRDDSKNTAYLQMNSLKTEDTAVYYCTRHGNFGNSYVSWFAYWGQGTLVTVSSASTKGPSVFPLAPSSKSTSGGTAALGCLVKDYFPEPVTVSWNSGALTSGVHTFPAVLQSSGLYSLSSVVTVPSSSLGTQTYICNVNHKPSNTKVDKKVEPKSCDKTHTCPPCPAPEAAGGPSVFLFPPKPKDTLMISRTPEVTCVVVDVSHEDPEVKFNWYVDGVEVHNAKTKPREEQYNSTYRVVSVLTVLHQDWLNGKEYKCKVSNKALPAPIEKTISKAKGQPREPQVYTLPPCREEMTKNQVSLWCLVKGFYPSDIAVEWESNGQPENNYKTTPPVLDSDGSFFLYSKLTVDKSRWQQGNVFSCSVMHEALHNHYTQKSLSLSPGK
light: QAVVTQEPSLTVSPGGTVTLTCRSSTGAVTTSNYANWVQQKPGQAPRGLIGGTNKRAPWTPARFSGSLLGDKAALTLLGAQPEDEAEYFCALWYSNLWVFGGGTKLTVLGQPKAAPSVTLFPPSSEELQANKATLVCLISDFYPGAVTVAWKADSSPVKAGVETTTPSKQSNNKYAASSYLSLTPEQWKSHRSYSCQVTHEGSTVEKTVAPTECS
notes: structure 1; CD3 Fab from PR003886, CLDN18.2 VH from PR007242; LALA
Question: Which “TDCC, Titer EC50 (pM), SNU620” value [1] does the source give for B1 here?
Answer: 18.3 pM

Question: And the “TDCC, Titer EC50 (pM), NUGC4_D8” value [2]?
Answer: 9 pM

Question: And the EC50 [3]?
Answer: 20.4 nM

Question: And the EC50 [4]?
Answer: 19.4 nM

Question: Does B1 bind [5]?
Answer: binds

B2: PR007080 (bispecific antibody, human IgG1, lambda)
chain: EVQLVESGGGLVQPGGSLRLSCAASGFTFSSYWMHWVRQVPGKGLVWVSRIDSRGSRTIYADSVKGRFTISRDNAKNTLYLQMNSLRAEDTAVYYCARGEDHDILTGYPIRGQGTTVTVSSGGGGSGGGGSGGGGSEVQLVESGGGLVQPGGSLRLSCAASGFTFSSYWMHWVRQVPGKGLVWVSRIDSRGSRTIYADSVKGRFTISRDNAKNTLYLQMNSLRAEDTAVYYCARGEDHDILTGYPIRGQGTTVTVSSASEPKSSDKTHTCPPCPAPEAAGAPSVFLFPPKPKDTLMISRTPEVTCVVVDVSHEDPEVKFNWYVDGVEVHNAKTKPREEQYNSTYRVVSVLTVLHQDWLNGKEYKCKVSNKALPAPIEKTISKAKGQPREPQVCTLPPSREEMTKNQVSLSCAVKGFYPSDIAVEWESNGQPENNYKTTPPVLDSDGSFFLVSKLTVDKSRWQQGNVFSCSVMHEALHNHYTQKSLSLSPGK
heavy: EVQLVESGGGLVQPGGSLKLSCAASGFTFSTYAMNWVRQASGKGLEWVGRIRSKYNNYATYYADSVKDRFTISRDDSKNTAYLQMNSLKTEDTAVYYCTRHGNFGNSYVSWFAYWGQGTLVTVSSASTKGPSVFPLAPSSKSTSGGTAALGCLVKDYFPEPVTVSWNSGALTSGVHTFPAVLQSSGLYSLSSVVTVPSSSLGTQTYICNVNHKPSNTKVDKKVEPKSCDKTHTCPPCPAPEAAGAPSVFLFPPKPKDTLMISRTPEVTCVVVDVSHEDPEVKFNWYVDGVEVHNAKTKPREEQYNSTYRVVSVLTVLHQDWLNGKEYKCKVSNKALPAPIEKTISKAKGQPREPQVYTLPPCREEMTKNQVSLWCLVKGFYPSDIAVEWESNGQPENNYKTTPPVLDSDGSFFLYSKLTVDKSRWQQGNVFSCSVMHEALHNHYTQKSLSLSPGK
light: QAVVTQEPSLTVSPGGTVTLTCRSSTGAVTTSNYANWVQQKPGQAPRGLIGGTNKRAPWTPARFSGSLLGDKAALTLLGAQPEDEAEYFCALWYSNLWVFGGGTKLTVLGQPKAAPSVTLFPPSSEELQANKATLVCLISDFYPGAVTVAWKADSSPVKAGVETTTPSKQSNNKYAASSYLSLTPEQWKSHRSYSCQVTHEGSTVEKTVAPTECS
notes: structure 1; CD3 Fab from PR003886, CLDN18.2 VH from PR007244; AAA
Question: Does B2 bind [6]?
Answer: binds

Question: And the EC50 [4]?
Answer: 46.7 nM

B3: PR007081 (bispecific antibody, human IgG1, lambda)
chain: EVQLVESGGGLVQPGGSLRLSCAASGFTFSSYWMHWVRQVPGKGLVWVSRINFDSSRTIYADSVKGRFTISRDNAKNTLYLQMNSLRAEDTAVYYCARGEDHDILTGYPIRGQGTTVTVSSGGGGSGGGGSGGGGSEVQLVESGGGLVQPGGSLRLSCAASGFTFSSYWMHWVRQVPGKGLVWVSRINFDSSRTIYADSVKGRFTISRDNAKNTLYLQMNSLRAEDTAVYYCARGEDHDILTGYPIRGQGTTVTVSSASEPKSSDKTHTCPPCPAPEAAGAPSVFLFPPKPKDTLMISRTPEVTCVVVDVSHEDPEVKFNWYVDGVEVHNAKTKPREEQYNSTYRVVSVLTVLHQDWLNGKEYKCKVSNKALPAPIEKTISKAKGQPREPQVCTLPPSREEMTKNQVSLSCAVKGFYPSDIAVEWESNGQPENNYKTTPPVLDSDGSFFLVSKLTVDKSRWQQGNVFSCSVMHEALHNHYTQKSLSLSPGK
heavy: EVQLVESGGGLVQPGGSLKLSCAASGFTFSTYAMNWVRQASGKGLEWVGRIRSKYNNYATYYADSVKDRFTISRDDSKNTAYLQMNSLKTEDTAVYYCTRHGNFGNSYVSWFAYWGQGTLVTVSSASTKGPSVFPLAPSSKSTSGGTAALGCLVKDYFPEPVTVSWNSGALTSGVHTFPAVLQSSGLYSLSSVVTVPSSSLGTQTYICNVNHKPSNTKVDKKVEPKSCDKTHTCPPCPAPEAAGAPSVFLFPPKPKDTLMISRTPEVTCVVVDVSHEDPEVKFNWYVDGVEVHNAKTKPREEQYNSTYRVVSVLTVLHQDWLNGKEYKCKVSNKALPAPIEKTISKAKGQPREPQVYTLPPCREEMTKNQVSLWCLVKGFYPSDIAVEWESNGQPENNYKTTPPVLDSDGSFFLYSKLTVDKSRWQQGNVFSCSVMHEALHNHYTQKSLSLSPGK
light: QAVVTQEPSLTVSPGGTVTLTCRSSTGAVTTSNYANWVQQKPGQAPRGLIGGTNKRAPWTPARFSGSLLGDKAALTLLGAQPEDEAEYFCALWYSNLWVFGGGTKLTVLGQPKAAPSVTLFPPSSEELQANKATLVCLISDFYPGAVTVAWKADSSPVKAGVETTTPSKQSNNKYAASSYLSLTPEQWKSHRSYSCQVTHEGSTVEKTVAPTECS
notes: structure 1; CD3 Fab from PR003886, CLDN18.2 VH from PR007242; AAA
Question: Does B3 bind [6]?
Answer: binds

Question: What about the EC50 [4] of the same binder?
Answer: 49.3 nM

B4: PR007079 (bispecific antibody, human IgG1, lambda)
chain: EVQLVESGGGLVQPGGSLRLSCAASGFTFSSYWMHWVRQVPGKGLVWVSRISSAGSRTIYADSVKGRFTISRDNAKNTLYLQMNSLRAEDTAVYYCARGEDHDILTGYPIRGQGTTVTVSSGGGGSGGGGSGGGGSEVQLVESGGGLVQPGGSLRLSCAASGFTFSSYWMHWVRQVPGKGLVWVSRISSAGSRTIYADSVKGRFTISRDNAKNTLYLQMNSLRAEDTAVYYCARGEDHDILTGYPIRGQGTTVTVSSASEPKSSDKTHTCPPCPAPEAAGAPSVFLFPPKPKDTLMISRTPEVTCVVVDVSHEDPEVKFNWYVDGVEVHNAKTKPREEQYNSTYRVVSVLTVLHQDWLNGKEYKCKVSNKALPAPIEKTISKAKGQPREPQVCTLPPSREEMTKNQVSLSCAVKGFYPSDIAVEWESNGQPENNYKTTPPVLDSDGSFFLVSKLTVDKSRWQQGNVFSCSVMHEALHNHYTQKSLSLSPGK
heavy: EVQLVESGGGLVQPGGSLKLSCAASGFTFSTYAMNWVRQASGKGLEWVGRIRSKYNNYATYYADSVKDRFTISRDDSKNTAYLQMNSLKTEDTAVYYCTRHGNFGNSYVSWFAYWGQGTLVTVSSASTKGPSVFPLAPSSKSTSGGTAALGCLVKDYFPEPVTVSWNSGALTSGVHTFPAVLQSSGLYSLSSVVTVPSSSLGTQTYICNVNHKPSNTKVDKKVEPKSCDKTHTCPPCPAPEAAGAPSVFLFPPKPKDTLMISRTPEVTCVVVDVSHEDPEVKFNWYVDGVEVHNAKTKPREEQYNSTYRVVSVLTVLHQDWLNGKEYKCKVSNKALPAPIEKTISKAKGQPREPQVYTLPPCREEMTKNQVSLWCLVKGFYPSDIAVEWESNGQPENNYKTTPPVLDSDGSFFLYSKLTVDKSRWQQGNVFSCSVMHEALHNHYTQKSLSLSPGK
light: QAVVTQEPSLTVSPGGTVTLTCRSSTGAVTTSNYANWVQQKPGQAPRGLIGGTNKRAPWTPARFSGSLLGDKAALTLLGAQPEDEAEYFCALWYSNLWVFGGGTKLTVLGQPKAAPSVTLFPPSSEELQANKATLVCLISDFYPGAVTVAWKADSSPVKAGVETTTPSKQSNNKYAASSYLSLTPEQWKSHRSYSCQVTHEGSTVEKTVAPTECS
notes: structure 1; CD3 Fab from PR003886, CLDN18.2 VH from PR007243; AAA
Question: Does B4 bind [6]?
Answer: binds

Question: And the EC50 [4]?
Answer: 73.2 nM
